Data: US20230279117A1 (published 2023)
Substitutions are numbered along the chain they refer to. Like-named read-outs stand apart in the source and are kept apart here.

B1: hu333-1A Fab (Fab)
heavy (part 1 of 2): EVQLVESGGGLVQPGGSLRLSCAVSGFSLTSYGVHWVRQAPGKGLEWVAVIWAGGSTNYNSALMSRLTISKDNAKNSVYLQMNSLRAEDTAVYYCAKPYGNSAMDYWGQGTLVTVSS
heavy (part 2 of 2): HHHHHHHH
light: DIQMTQSPSTLSASVGDRVTITCKASQDVGIVVAWYQQKPGKAPKLLIYWASIRHTGVPSRFSGSGSGTEFTLTISSLQPDDFATYYCQQYSNYPLYTFGQGTKLEIK
notes: not shown: human IgG2 CH1 (printed IgG2a-CH1); human constant region of kappa chain
B2: hu333-4A2 Fab (Fab)
heavy (part 1 of 2): B1 heavy (part 1 of 2) with N60V, S61D, A62S, L63V, M64K, S65G, L67F, S77T, N101T
heavy (part 2 of 2): HHHHHH
light: B1 light with T10S, L105V
notes: not shown: human IgG1-CH1; human constant region of kappa chain
B3: hu333-4B2 Fab (Fab)
heavy (part 1 of 2): EVQLVESGGGLVQPGGSLRLSCAVSGFSLTSYGVHWVRQAPGKGLEWVAVIWAGGSTNYADSVKGRFTISKDTSKNTVYLQMNSLRAEDTAVYYCAKPYGTSAMDYWGQGTLVTVSS
heavy (part 2 of 2): HHHHHH
light: B1 light with T10S, L105V
notes: as for B2
B4: hu333-4B2-IgG1mc (antibody)
heavy: EVQLVESGGGLVQPGGSLRLSCAVSGFSLTSYGVHWVRQAPGKGLEWVAVIWAGGSTNYADSVKGRFTISKDTSKNTVYLQMNSLRAEDTAVYYCAKPYGTSAMDYWGQGTLVTVSSASTKGPSVFPLAPSSKSTSGGTAALGCLVKDYFPEPVTVSWNSGALTSGVHTFPAVLQSSGLYSLSSVVTVPSSSLGTQTYICNVNHKPSNTKVDKKVEPKSCDKTHTCPPCPAPPAAAPSVFLFPPKPKDTLMISRTPEVTCVVVDVSHEDPEVKFNWYVDGVEVHNAKTKPREEQYNSTYRVVSVLTVLHQDWLNGKEYKCKVSNKALAAPIEKTISKAKGQPREPQVYTLPPSRDELTKNQVSLTCLVKGFYPSDIAVEWESNGQPENNYKTTPPVLDSDGSFFLYSKLTVDKSRWQQGNVFSCSVMHEALHNHYTQKSLSLSPGK
light: DIQMTQSPSSLSASVGDRVTITCKASQDVGIVVAWYQQKPGKAPKLLIYWASIRHTGVPSRFSGSGSGTEFTLTISSLQPDDFATYYCQQYSNYPLYTFGQGTKVEIKRTVAAPSVFIFPPSDEQLKSGTASVVCLLNNFYPREAKVQWKVDNALQSGNSQESVTEQDSKDSTYSLSSTLTLSKADYEKHKVYACEVTHQGLSSPVTKSFNRGEC
notes: also called hu333-4B2-IgGlmc
B5: hu333-4A2-IgG1mc (antibody)
heavy: B4 heavy with A60V, T73N, S74A
light: B4 light
notes: also called hu333-4A2-IgGlmc
B6: hu333-4B2-IgG1mf (antibody)
heavy: B4 heavy with A236G
light: B4 light

How the values were obtained:
[1] = target: T1, full length human PD-L1 expressed on cells (human, UniProt Q9NZQ7 19-290); test: FACS competition with PD-1/Fc on HEK293/PD-L1 cells
T1 construct: in HEK293/OS8/PD-L1 co-expressed with the membrane anti-CD3 scFv OS8; also called HEK293/PD-L1; HEK293/OS8/PD-L1
T1 sequence (Q9NZQ7 19-290 limits assumed): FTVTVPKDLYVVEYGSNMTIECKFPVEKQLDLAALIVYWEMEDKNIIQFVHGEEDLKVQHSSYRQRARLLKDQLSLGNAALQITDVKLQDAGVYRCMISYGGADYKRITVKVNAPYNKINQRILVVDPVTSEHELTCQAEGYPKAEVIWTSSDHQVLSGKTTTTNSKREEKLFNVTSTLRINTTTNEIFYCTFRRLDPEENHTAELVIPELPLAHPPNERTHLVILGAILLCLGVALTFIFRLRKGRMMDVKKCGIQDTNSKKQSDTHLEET

[2] = target: T1, full length human PD-L1 expressed on …; test: cell-based or functional assay
[3] = target: T1, full length human PD-L1 expressed on …; test: FACS competition with CD80/Fc on HEK293/PD-L1 cells
human PD-L1-ECD/His [4] = target: T2, human PD-L1-ECD/His (human, UniProt Q9NZQ7 19-238); test: SPR (BIAcore T-200), Fab, human PD-L1; koff may be too slow to measure
T2 construct: also called PD-L1/His; human PD-L1/His
T2 sequence (Q9NZQ7 19-238): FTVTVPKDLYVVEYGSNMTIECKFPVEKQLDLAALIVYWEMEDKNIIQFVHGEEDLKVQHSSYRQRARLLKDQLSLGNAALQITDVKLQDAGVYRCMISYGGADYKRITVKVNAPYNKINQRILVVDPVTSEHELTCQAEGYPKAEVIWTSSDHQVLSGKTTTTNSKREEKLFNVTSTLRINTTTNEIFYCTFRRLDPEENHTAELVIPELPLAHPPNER
Procedure: (§1) For affinity determinations of anti-PD-L1 Fabs, SPR assays were performed using BIAcore™ T-200 (GE Life Sciences). Briefly, human PD-L1/His was coupled to an activated CM5 biosensor chip (Cat. No. BR100530, GE Life Sciences) to achieve approximately 100-200 response units (RU), followed by blocking un-reacted groups with 1 M ethanolamine. A serial dilutions of 0.12 nM to 90 nM Fab samples were injected, mixed into the SPR running buffer (10 mM HEPES, 150 mM NaCl, 0.05% Tween20, pH7.4) at 30 µL/minute, and binding responses on human PD-L1/His were calculated by substracting of RU from a blank flow-cell. Association rates (kₒₙ) and dissociation rates (koff) were calculated using the one-to-one Langmuir binding model (BIA Evaluation Software, GE Life Sciences). The equilibrium dissociation constant (Kd) was calculated as the ratio koff/kₒₙ.
(§2) For affinity determinations of anti-PD-L1 Fabs, SPR assays were conducted using BIAcore™ T-200 instrument (GE Life Sciences, Shanghai, China) as described earlier. Association rates (kₒₙ) and dissociation rates (koff) were calculated using the one-to-one Langmuir binding model (BIA Evaluation Software, GE Life Sciences). The equilibrium dissociation constant (Kd) was calculated as the ratio koff/kₒₙ.

[5] = target: T1, full length human PD-L1 expressed on …; test: FACS competition with PD-1/Fc on HEK293/PD-L1 cells; remark: listed apart in the source
[6] = target: T1, full length human PD-L1 expressed on …; test: FACS competition with CD80/Fc on HEK293/PD-L1 cells; remark: listed apart in the source
human PD-L1-ECD/His [7] = target: T2, human PD-L1-ECD/His; test: SPR (BIAcore T-200), PD-L1/His on CM5 chip, Fab injected
Procedure: as §1

[8] = target: T3, cynomolgus monkey PD-L1/His (cynomolgus monkey (Macaca fascicularis), UniProt G7PSE7 19-239); test: SPR (BIAcore T-200), Fab, monkey PD-L1
T3 construct: not shown: His tag
T3 sequence (G7PSE7 entry or part of it): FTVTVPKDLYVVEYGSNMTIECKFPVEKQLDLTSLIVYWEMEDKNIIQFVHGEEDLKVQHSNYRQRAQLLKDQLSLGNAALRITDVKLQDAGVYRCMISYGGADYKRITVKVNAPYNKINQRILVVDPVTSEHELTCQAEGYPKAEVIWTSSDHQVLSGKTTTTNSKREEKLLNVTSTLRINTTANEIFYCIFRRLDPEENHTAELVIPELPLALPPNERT

human PD-L1-ECD/His [9] = target: T2, human PD-L1-ECD/His; test: SPR (BIAcore T-200), PD-L1/His on CM5 chip, Fab injected; koff may be too slow to measure
Procedure: as §1

[10] = target: T3, cynomolgus monkey PD-L1/His; test: SPR (BIAcore T-200), Fab, monkey PD-L1; koff may be too slow to measure
human PD-L1-ECD/His [11] = target: T2, human PD-L1-ECD/His; test: SPR (BIAcore T-200), Fab, human PD-L1
Procedure: as §1, §2

[12] = target: T1, full length human PD-L1 expressed on …; test: cell-based or functional assay; remark: listed apart in the source
[13] = target: T3, cynomolgus monkey PD-L1/His; test: ELISA, 200 ng PD-L1 protein coated per well
Procedure: The monkey PD-L1/His and murine PD-L1/His were expressed and purified in a similar way to the human PD-L1/His as described earlier. […] The synthesized full length mAb was named as Y1-IgG1mc. The ELISA assay was performed essentially in the same way as described in the previous section. Briefly, 200 ng of PD-L1 protein was coated on each well of Nunc MaxiSorp ELISA plate (Cat. No. 442404, Nunc, Thermo Fisher). After washing and blocking, indicated concentrations of anti-PD-L1 mAbs were added and incubated at room temperature for 1 hour. After washing, the bound anti-PD-L1 mAbs were detected using a HRP-conjugated goat anti-human Fc antibody (Cat. No. A0170, Sigma).

Row | Binder | koff (human PD-L1-ECD/His [4]) [s⁻¹] | IC50 [5] [µg/mL] | IC50 [6] [µg/mL] | Kd (human PD-L1-ECD/His [7]) [pM] | kon (human PD-L1-ECD/His [7]) [M⁻¹ s⁻¹] | Kd [8] [pM] | kon [8] [M⁻¹ s⁻¹] | koff (human PD-L1-ECD/His [9]) [s⁻¹] | koff [10] [s⁻¹] | Kd (human PD-L1-ECD/His [11]) [pM] | kon (human PD-L1-ECD/His [11]) [M⁻¹ s⁻¹] | IL-2 release in HuT78/P3Z, IC50 [12] [µg/mL] | IL-2 release in HuT78/PD-1, EC50 [12] [µg/mL] | binding result [13] | other results
1 | B1 |  |  |  |  |  |  |  |  |  |  |  |  |  |  | IC50 [1]: 0.057 µg/mL; IL-2 release in HuT78/P3Z, IC50 [2]: 0.012 µg/mL; IL-2 release in HuT78/PD-1, EC50 [2]: 0.066 µg/mL; IC50 [3]: 0.049 µg/mL
2 | B2 | 1.03e-05 | 0.05 | 0.045 | 2.65 | 3.88e+06 | 2.91 | 3.19e+06 | 1.03e-05 | 9.3e-06 | 2.65 | 3.88e+06 | 0.005 | 0.05 |  | 
3 | B3 | 1.32e-05 | 0.053 | 0.062 | 3.5 | 3.78e+06 | 2.5 | 3.2e+06 | 1.32e-05 | 8e-06 | 3.5 | 3.78e+06 | 0.016 | 0.058 |  | 
4 | B4 |  |  |  |  |  |  |  |  |  |  |  |  |  | binds | 
5 | B5 |  |  |  |  |  |  |  |  |  |  |  |  |  | binds | 
6 | B6 |  |  |  |  |  |  |  |  |  |  |  |  |  | binds | 
